From US20190127480A1 (Regeneron, published 2019)
Where a chain is given by its changes, count along the chain named.

B1: H1H11810P2 (antibody, human IgG1, V domains shown)
VH: QVQLVESGGGVVQPGRSLRLSCAASGFTFSSYGMHWVRQAPGKGLEWVAVISYAGNNKYYADSVKGRFTVSRDNSKKTLYLQMNSLRSEDTAVYYCAKDSYYDFLTDPDVLDIWGQGTMVTVSS
VL: DIQMTQSPSSLSASVGDSVTITCRASQSINNYLNWYQQKPGKAPKLLIYTASSLLSGVPSRFSGSGSGTDFTLTISGLHPEDFATYFCQQSFSTPPITFGQGTRLDIK
notes: human IgG1; also called PSMA-VH-11810 (its HCVR)
B2: H1H11837P2 (antibody, human IgG1, V domains shown)
VH: QVQLVESGGGVVQPGRSLRLSCAASGFTFSSYGMHWVRQAPGKGLEWVTFISYDGNNKYYSDSVKGRFAISRDNSKNTLYLQMNSLRAEDTSVYFCAKDQYYDFLTDFGVFDYWGQGTLVTVSS
VL: B1 VL
notes: human IgG1
B3: H1H7269P (monovalent 1-arm) (antibody, human IgG1, V domains shown)
VH: QVQLVESGGGLVQPGRSLRLSCAASGFKFDDYTMHWVRQGPGKGLEWVSDISWSGGSIDYTDSVKGRFSISRDNAKNSLYLQMNSLRVEDTALYYCVKDKSGYGKYSYGLDVWGQGTTVTVSS
VL: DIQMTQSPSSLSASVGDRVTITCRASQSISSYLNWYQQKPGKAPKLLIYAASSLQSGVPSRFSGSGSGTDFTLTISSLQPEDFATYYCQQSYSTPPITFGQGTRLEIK
notes: Monovalent 1-arm: second Fab removed, only the Fc portion (CH2-CH3) expressed; human IgG1 Fc; tied by numerical identifier; also called H1H7269B
B4: H1H7242P (monovalent 1-arm) (antibody, human IgG1, V domains shown)
VH: EVQLVESGGGLVQPGRSLRLSCAASGFTFDDYTMHWVRQGPGKGLEWVSDIGWNSNSIGYADSVKGRFTISRDNAKNSLYLQMNSLRPEDTALYFCVKDKSGYGKFFIGLDVWGQGTMVTVSS
VL: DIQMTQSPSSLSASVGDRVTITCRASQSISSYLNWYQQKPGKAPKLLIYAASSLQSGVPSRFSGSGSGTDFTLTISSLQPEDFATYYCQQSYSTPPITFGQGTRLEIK
notes: Monovalent 1-arm: second Fab removed, only the Fc portion (CH2-CH3) expressed; human IgG1 Fc; tied by numerical identifier; also called H1H7242B
B5: H1H7254P (monovalent 1-arm) (antibody, human IgG1, V domains shown)
VH: B4 VH with L11V, T28K, D31G, S57T
VL: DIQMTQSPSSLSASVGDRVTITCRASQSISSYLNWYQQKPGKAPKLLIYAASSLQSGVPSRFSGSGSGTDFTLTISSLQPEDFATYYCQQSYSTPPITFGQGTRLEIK
notes: Monovalent 1-arm: second Fab removed, only the Fc portion (CH2-CH3) expressed; human IgG1 Fc; tied by numerical identifier; also called H1H7254B
B6: H1H7258P (monovalent 1-arm) (antibody, human IgG1, V domains shown)
VH: B4 VH with E1Q, S57T, K76R, F95Y, F107Q, I108Y, M118T
VL: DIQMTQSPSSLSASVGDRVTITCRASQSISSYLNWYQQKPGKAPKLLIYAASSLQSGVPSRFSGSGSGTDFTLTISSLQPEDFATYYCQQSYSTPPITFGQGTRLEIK
notes: Monovalent 1-arm: second Fab removed, only the Fc portion (CH2-CH3) expressed; human IgG1 Fc; tied by numerical identifier; also called H1H7258B
B7: H1H7241P (monovalent 1-arm) (antibody, human IgG1, V domains shown)
VH: B4 VH with D30A, S57T, T69A, F95Y, F107Q, I108Y, M118T
VL: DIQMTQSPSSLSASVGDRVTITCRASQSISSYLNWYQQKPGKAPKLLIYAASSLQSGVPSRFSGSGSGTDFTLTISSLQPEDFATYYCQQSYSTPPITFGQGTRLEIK
notes: Monovalent 1-arm: second Fab removed, only the Fc portion (CH2-CH3) expressed; human IgG1 Fc; tied by numerical identifier; also called H1H7241B
B8: H1H7250P (monovalent 1-arm) (antibody, human IgG1, V domains shown)
VH: B4 VH with E1Q, S57T, I58K
VL: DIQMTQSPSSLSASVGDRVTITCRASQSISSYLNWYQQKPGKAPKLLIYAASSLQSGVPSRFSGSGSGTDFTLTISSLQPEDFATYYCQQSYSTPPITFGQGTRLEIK
notes: Monovalent 1-arm: second Fab removed, only the Fc portion (CH2-CH3) expressed; human IgG1 Fc; tied by numerical identifier; also called H1H7250B
B9: H1H7251P (monovalent 1-arm) (antibody, human IgG1, V domains shown)
VH: EVQLVESGGGLVQPGRSLRLSCAASGFTFADYTMHWVRQGPGTGLEWVSDIGWSGGSLGYADSVKGRFTISRDNAKNSLYLEMNNLRPEDTALYYCVKDKSGYGKFQYGLDVWGQGTTVTVSS
VL: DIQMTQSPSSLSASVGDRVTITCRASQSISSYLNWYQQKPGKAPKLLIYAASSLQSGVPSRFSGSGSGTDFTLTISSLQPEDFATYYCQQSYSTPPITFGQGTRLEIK
notes: Monovalent 1-arm: second Fab removed, only the Fc portion (CH2-CH3) expressed; human IgG1 Fc; tied by numerical identifier; also called H1H7251B

Columns and labels:
[1] = molecular target: T1, human PSMA expressed with an N-terminal hexahistidine tag (6h.hPSMA, R&D) (human, UniProt Q04609 44-750); experiment: SPR Biacore T-200, 37 C, antibody-capture (anti-human Fc), 6h.hPSMA as analyte
T1 construct: Bought soluble protein; also called soluble human PSMA; human PSMA protein
T1 sequence (Q04609 other isoform, or with tags, fused parts or gaps limits assumed): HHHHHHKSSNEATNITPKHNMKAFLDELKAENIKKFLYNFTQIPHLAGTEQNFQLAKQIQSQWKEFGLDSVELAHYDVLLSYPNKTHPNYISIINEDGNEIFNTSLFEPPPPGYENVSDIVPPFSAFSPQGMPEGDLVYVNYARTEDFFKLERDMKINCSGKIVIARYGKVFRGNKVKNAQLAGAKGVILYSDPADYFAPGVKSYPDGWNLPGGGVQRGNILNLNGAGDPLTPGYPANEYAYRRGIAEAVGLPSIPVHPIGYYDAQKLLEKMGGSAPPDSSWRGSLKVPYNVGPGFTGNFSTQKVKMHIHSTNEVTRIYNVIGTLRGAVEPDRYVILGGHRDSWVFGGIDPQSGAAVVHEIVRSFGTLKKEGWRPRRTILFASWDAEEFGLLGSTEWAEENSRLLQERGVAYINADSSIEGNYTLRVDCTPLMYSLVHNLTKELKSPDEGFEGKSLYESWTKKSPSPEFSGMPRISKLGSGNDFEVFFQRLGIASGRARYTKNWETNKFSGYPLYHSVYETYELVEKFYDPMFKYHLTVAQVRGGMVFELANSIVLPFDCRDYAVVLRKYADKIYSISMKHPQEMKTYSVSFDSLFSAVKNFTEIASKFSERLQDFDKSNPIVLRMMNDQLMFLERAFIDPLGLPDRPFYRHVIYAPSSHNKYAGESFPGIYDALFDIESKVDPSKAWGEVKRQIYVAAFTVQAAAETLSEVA
Protocol: In this example, anti-PSMA antibodies were assessed for their ability to bind to human PSMA. […] Measurements were conducted on a Biacore™ T-200 instrument (GE Healthcare).
Briefly, a CM5 Biacore™ sensor surface was derivatized via amine coupling with a monoclonal mouse anti-human Fc antibody (GE, # BR-1008-39) or monoclonal goat anti-mouse Fc antibody (GE, # BR-1008-38) to capture purified anti-PSMA antibodies. Binding studies were performed in HBSP++ buffer composed of 0.01M HEPES, 0.15M NaCl, 2 mM Ca²⁺, 2 mM Mg²⁺, 0.05% v/v Surfactant P20, pH7.4. Varying concentrations of human PSMA expressed with an N-terminal hexahistidine tag (6h.hPSMA, R&D) prepared in HBSP++ running buffer (ranging from 50 to 0.78 nM, 4-fold dilutions) were injected over the anti-PSMA antibody captured surface at a flow rate of 30 μL/minute. Antibody-reagent association was monitored for 2 minutes while dissociation in HBSP++ running buffer was monitored for 8 minutes.
(§1) Kinetic association (kₐ) and dissociation (kd) rate constants were determined by fitting the real-time sensorgrams to a 1:1 binding model using Scrubber 2.0c curve fitting software. Binding dissociation equilibrium constants (KD) and dissociative half-lives (t½) were calculated from the kinetic rate constants as: KD (M)=kd/kₐ; and t_{1/2} (min)=(ln 2/(60*kd).

[2] = molecular target: T2, Soluble heterodimeric CD3 protein (hCD3-epsilon/hCD3-delta) with either a human Fc tag (hFcΔAdp/hFc) or a … (human, UniProt P07766 23-126; P04234 22-105); experiment: SPR Biacore 25C antigen-capture, 1-arm
T2 construct: also called hCD3ε/δ; not shown: Fc tag: human (hFcΔAdp/hFc)
T2 sequence (P07766 23-126 limits assumed, stated change not applied, chain 1 of 2): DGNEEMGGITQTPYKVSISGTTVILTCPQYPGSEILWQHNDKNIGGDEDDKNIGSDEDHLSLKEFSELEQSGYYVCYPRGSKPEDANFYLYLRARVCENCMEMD
T2 sequence (P04234 22-105 limits assumed, stated change not applied, chain 2 of 2): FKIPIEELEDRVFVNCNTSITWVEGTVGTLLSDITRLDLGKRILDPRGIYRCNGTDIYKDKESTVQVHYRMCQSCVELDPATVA
Protocol: In the antigen-capture format, heterodimeric CD3 protein was captured using a rabbit anti-mouse Fc or mouse anti-human Fc and the respective antibodies were injected over the captured antigen.
as §1, with “by processing and” for “by”, “data” for “real-time sensorgrams”, “2.0” for “2.0c”, “(t₁₁₂)” for “(t½)”, “2/(60*kd). NT=not tested; NB=no binding observed.” for “2/(60*kd).”

[3] = molecular target: T2, Soluble heterodimeric CD3 protein …; experiment: SPR Biacore 25C antibody-capture, 1-arm
Protocol: Soluble heterodimeric CD3 protein (hCD3-epsilon/hCD3-delta; SEQ ID NOs:1652/1653) with either a human Fc tag (hFcΔAdp/hFc; SEQ ID NOs:1683/1684) or a mouse Fc tag (mFcΔAdp/mFc; SEQ ID NOs:1685/1686) was injected over the antibody captured surface and the binding response was recorded. Heterodimeric CD3 protein was purified using the method described in Davis et al. (US2010/0331527).
as §1, with “by processing and” for “by”, “data” for “real-time sensorgrams”, “2.0” for “2.0c”, “(t₁₁₂)” for “(t½)”, “2/(60*kd). NT=not tested; NB=no binding observed.” for “2/(60*kd).”

| Binder | Kd [1] | koff [1] | kon [1] | t1/2 [1] | Kd [2] | T½ [2] | koff [2] | kon [2] | Kd [3] | T½ [3] | koff [3] | kon [3] |
| --- | --- | --- | --- | --- | --- | --- | --- | --- | --- | --- | --- | --- |
| B1 | ≤ 0.0199 nM | ≤ 1e-05 s⁻¹ | 503000 M⁻¹ s⁻¹ | ≥ 1160 min | – | – | – | – | – | – | – | – |
| B2 | 1.66 nM | 0.000734 s⁻¹ | 441000 M⁻¹ s⁻¹ | 15.7 min | – | – | – | – | – | – | – | – |
| B3 | – | – | – | – | 24.9 nM | 2 min | 0.00689 s⁻¹ | 277000 M⁻¹ s⁻¹ | 243 nM | 2 min | 0.00624 s⁻¹ | 25700 M⁻¹ s⁻¹ |
| B4 | – | – | – | – | 2.63 nM | 11 min | 0.00101 s⁻¹ | 383000 M⁻¹ s⁻¹ | 30.9 nM | 17 min | 0.000664 s⁻¹ | 21500 M⁻¹ s⁻¹ |
| B5 | – | – | – | – | 0.762 nM | 35 min | 0.00033 s⁻¹ | 433000 M⁻¹ s⁻¹ | 14.9 nM | 30 min | 0.000388 s⁻¹ | 26000 M⁻¹ s⁻¹ |
| B6 | – | – | – | – | 2.18 nM | 40 min | 0.00029 s⁻¹ | 133000 M⁻¹ s⁻¹ | 24 nM | 38 min | 0.000302 s⁻¹ | 12600 M⁻¹ s⁻¹ |
| B7 | – | – | – | – | 1.26 nM | 49 min | 0.000236 s⁻¹ | 187000 M⁻¹ s⁻¹ | 22 nM | 39 min | 0.000295 s⁻¹ | 13400 M⁻¹ s⁻¹ |
| B8 | – | – | – | – | 0.82 nM | 61 min | 0.000189 s⁻¹ | 231000 M⁻¹ s⁻¹ | 10.5 nM | 47 min | 0.000247 s⁻¹ | 23400 M⁻¹ s⁻¹ |
| B9 | – | – | – | – | 2.67 nM | 10 min | 0.00119 s⁻¹ | 447000 M⁻¹ s⁻¹ | 41.7 nM | 11 min | 0.00107 s⁻¹ | 25600 M⁻¹ s⁻¹ |
